Data set [1] has as its system H004 Phi29 DNA polymerase Y224K,E239G,V250I,L253A,E375Y,A437G,A484E,E508R,D510K,K512Y,E515Q,D570M (Bacillus phage phi29?). Description: cleavage_in_vitro. Particulars: primer hydrolysed in 2 min.
In data set [2] the test system is G077 Phi29 DNA polymerase D145A D145A (Bacillus phage phi29?). Briefly: cleavage_in_vitro. Particulars: RCA +++.
Data set [3] has as its system H019 Phi29 DNA polymerase Y224K,E239G,V250I,L253A,E375A,A437G,A484E,E508R,D510K,K512Y,E515Q,D570M (Bacillus phage phi29?). Briefly: cleavage_in_vitro. Particulars: RCA ++++.
The test system of data set [4] is H020 Phi29 DNA polymerase Y224K,E239G,V250I,L253A,E375S,A437G,A484E,E508R,D510K,K512Y,E515Q,D570M (Bacillus phage phi29?). Description: cleavage_in_vitro. Particulars: RCA ++++.
The subject of data set [5] is G087 Phi29 DNA polymerase Y148L Y148L (Bacillus phage phi29?). Description: cleavage_in_vitro. Particulars: RCA +++.
In data set [6] the test system is H022 Phi29 DNA polymerase Y224K,E239G,V250I,L253A,E375Y,K379S,A437G,A484E,E508R,D510K,K512Y,E515Q,D570M (Bacillus phage phi29?). Description: cleavage_in_vitro. The conditions noted are these: RCA ++++.
In data set [7] the test system is G075 Phi29 DNA polymerase K143D K143D (Bacillus phage phi29?). Briefly: cleavage_in_vitro. The conditions noted are these: RCA +++.
Data set [8] has as its system G059 Phi29 DNA polymerase E14I E14I (Bacillus phage phi29?). Description: cleavage_in_vitro. The conditions noted are these: RCA +++.
The subject of data set [9] is H004 Phi29 DNA polymerase Y224K,E239G,V250I,L253A,E375Y,A437G,A484E,E508R,D510K,K512Y,E515Q,D570M (Bacillus phage phi29?). The conditions noted are these: conversion of modified dNTPs; 100 pM primer/template, 300 pM protein, 5 mM Mg(OAc)2, 10 mM DTT, 30 min; Table 5 gives 19.9%.
Data set [10] has as its system H034 Phi29 DNA polymerase K143D,Y224K,E239G,V250I,L253A,E375Y,A437G,A484E,E508R,D510K,K512Y,E515Q,D570M (Bacillus phage phi29?). The conditions noted are these: conversion of modified dNTPs; 5 mM Mg(OAc)2.
The test system of data set [11] is H019 Phi29 DNA polymerase Y224K,E239G,V250I,L253A,E375A,A437G,A484E,E508R,D510K,K512Y,E515Q,D570M (Bacillus phage phi29?). The conditions noted are these: conversion of modified dNTPs; 5 mM Mg(OAc)2.
The test system of data set [12] is H020 Phi29 DNA polymerase Y224K,E239G,V250I,L253A,E375S,A437G,A484E,E508R,D510K,K512Y,E515Q,D570M (Bacillus phage phi29?). The conditions noted are these: conversion of modified dNTPs; 5 mM Mg(OAc)2.
Data set [13] has as its system H022 Phi29 DNA polymerase Y224K,E239G,V250I,L253A,E375Y,K379S,A437G,A484E,E508R,D510K,K512Y,E515Q,D570M (Bacillus phage phi29?). The conditions noted are these: conversion of modified dNTPs; 5 mM Mg(OAc)2.
Data set [14] deals with T1, tsH034' Phi29 DNA polymerase (K143D, sso7d fusion) (Bacillus phage phi29?) (UniProt P03680).
T1 sequence: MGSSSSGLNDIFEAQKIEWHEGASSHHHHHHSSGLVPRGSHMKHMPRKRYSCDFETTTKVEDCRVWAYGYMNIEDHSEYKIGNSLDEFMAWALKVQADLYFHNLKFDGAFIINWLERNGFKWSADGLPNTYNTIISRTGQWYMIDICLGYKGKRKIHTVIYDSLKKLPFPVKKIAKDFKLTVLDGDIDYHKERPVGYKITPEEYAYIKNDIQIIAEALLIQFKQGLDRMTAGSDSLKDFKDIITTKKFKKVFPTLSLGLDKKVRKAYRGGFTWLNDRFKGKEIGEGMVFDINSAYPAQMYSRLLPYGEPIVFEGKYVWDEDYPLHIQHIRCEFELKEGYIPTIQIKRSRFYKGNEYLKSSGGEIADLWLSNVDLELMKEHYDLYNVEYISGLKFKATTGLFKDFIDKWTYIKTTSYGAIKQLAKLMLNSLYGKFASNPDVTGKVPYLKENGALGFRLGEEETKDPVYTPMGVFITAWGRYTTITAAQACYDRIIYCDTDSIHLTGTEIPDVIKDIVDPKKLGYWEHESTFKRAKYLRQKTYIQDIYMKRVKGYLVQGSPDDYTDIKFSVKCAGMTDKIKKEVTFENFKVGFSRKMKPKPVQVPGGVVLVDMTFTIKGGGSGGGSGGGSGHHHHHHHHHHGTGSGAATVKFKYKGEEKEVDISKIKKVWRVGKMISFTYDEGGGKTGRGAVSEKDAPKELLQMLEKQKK
The conditions noted are these: template aligned length, single molecule sequencing.

Data set [15] addresses T2, tsH042' Phi29 DNA polymerase (K143S, sso7d fusion) (Bacillus phage phi29?) (UniProt P03680).
T2 sequence: T1 sequence with D184S
Particulars: template aligned length, single molecule sequencing.

Data set [16] concerns the target T3, tsH039' Phi29 DNA polymerase (Y148L, sso7d fusion) (Bacillus phage phi29?) (UniProt P03680).
T3 sequence: T1 sequence with D184K, Y189L
Particulars: template aligned length, single molecule sequencing.

Substitutions are numbered along the chain they refer to. Read-outs that look alike come from different tables or passages of the source.

For “fluorescent-labelled primer (exonuclease substrate)”, the activity in [1] came to 38%; in [2], 68.6%; in data set [3], 39.1%; in data set [4], 56.5%; in data set [5], 34.5%; in data set [6], 62.2%. For the same substance, the figures for the activity in data set [7] and in [8] were 37.5% and 52.6%, respectively.
“primer/template (modified dNTP conversion)”: the activity was 48.4% in [9]; 5.4% in data set [10]; 22.2% in data set [11]; 46.2% in data set [12]; 32.5% in data set [13].
Turning to “circular DNA template with primer (single molecule sequencing)”, the results for the activity in data set [14], in [15] and in data set [16] were 282 bases, 342 bases and 436 bases, respectively.

Source of the values: patent publication US20240309340.
